Holding throughout (assay): EMSA; EMSA: 10 mM HEPES/NaOH pH 7.4, 150 mM NaCl, ~53 pmol DNA in 10 ul, RT 15 min; DNA:protein molar ratios 1:0.3 to 1:9; 6% PAGE, 0.5% TBE, ethidium bromide
Conditions in all cases: protein: recombinant; tags: Strep-tag (C-terminal); chain copies: 2; blunt

The target in data set [1] is T1, VosA1-190 K37A/K39A (Aspergillus nidulans, UniProt Q5BBX1 1-190, K37A;K39A).
T1 sequence: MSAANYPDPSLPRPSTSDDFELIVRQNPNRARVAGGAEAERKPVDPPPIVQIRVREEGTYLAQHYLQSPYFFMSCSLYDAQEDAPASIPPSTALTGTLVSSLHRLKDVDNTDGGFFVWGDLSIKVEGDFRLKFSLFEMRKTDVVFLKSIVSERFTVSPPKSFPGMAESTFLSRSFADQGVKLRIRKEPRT

Data set [2] addresses T2, VosA1-190 K160A (Aspergillus nidulans, UniProt Q5BBX1 1-190, K160A).
T2 sequence: T1 sequence with A37K, A39K, K160A

Data set [3] concerns the target T3, VosA1-190 dead (Aspergillus nidulans, UniProt Q5BBX1 1-190, K37A;K39A;R41A;K42A).
T3 sequence: T1 sequence with R41A, K42A

Residue numbers refer to the chain shown, from its start.

B1: brlA 35 bp probe (OHS301/302) (dsDNA)
DNA 1: ATTCGGCGACTAGGATCTTACTGGCCGCGGCCGAG
DNA 2: CTCGGCCGCGGCCAGTAAGATCCTAGTCGCCGAAT
Turning to B1, the figures for the binding result in data set [1], in data set [2] and in data set [3] were “no binding”, “binds” and “no binding”, respectively.

For the origin of these results see PMC3876986, “The Velvet Family of Fungal Regulators Contains a DNA-Binding Domain Structurally Similar to NF-κB”.
